Results reported in PMC11339910 (Journal of molecular biology, 2024).

Biological target: IL-13 (UniProt P35225)
Experiment: SPR

IL-13, sequence (P35225 35-143): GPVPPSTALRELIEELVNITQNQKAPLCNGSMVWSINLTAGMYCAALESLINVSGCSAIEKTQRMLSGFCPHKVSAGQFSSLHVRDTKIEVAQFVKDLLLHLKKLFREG

B1: Fab region of tralokinumab (Fab, V domains shown)
VH: QVQLVQSGAEVKKPGASVKVSCKASGYTFTNYGLSWVRQAPGQGLEWMGWISANNGDTNYGQEFQGRVTMTTDTSTSTAYMELRSLRSDDTAVYYCARDSSSSWARWFFDLWGRGTLVTVSS
VL: SYVLTQPPSVSVAPGKTARITCGGNIIGSKLVHWYQQKPGQAPVLVIYDDGDRPSGIPERFSGSNSGNTATLTISRVEAGDEADYYCQVWDTGSDPVVFGGGTKLTVL
B1: binds.
